Reference: patent US20200277373A1, “ANTI-TREM2 ANTIBODIES AND METHODS OF USE THEREOF” (Denali Therapeutics Inc., priority 2017, published 2020)

T1: TREM2 (Homo sapiens, UniProt Q9NZC2)
T1 construct: macrophage cells that endogenously express TREM2; endogenous in cells; host or cells: primary human monocyte-derived macrophages from donor blood
T1 sequence (Q9NZC2 19-230): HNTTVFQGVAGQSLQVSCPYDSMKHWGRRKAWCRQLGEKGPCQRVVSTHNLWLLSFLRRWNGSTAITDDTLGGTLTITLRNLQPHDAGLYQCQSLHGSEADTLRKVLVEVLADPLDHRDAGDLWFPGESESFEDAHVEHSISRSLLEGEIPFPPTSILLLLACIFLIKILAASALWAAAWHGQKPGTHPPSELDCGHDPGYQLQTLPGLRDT


Tests used:
[1] = biological target: T2, Human TREM2 expressing HEK cells (Homo sapiens, UniProt Q9NZC2); test: FACS surface binding on HEK 293 overexpressing human TREM2 (H6); conditions: FIG. 1A, mixed cell lines
T2 construct: expressed in transfected cells
Protocol: HEK 293 overexpressing human TREM2 (H6) and HEK 293 overexpressing GFP (B5) were harvested by 0.05% trypsin and incubated at 37° C. for 2 hours for surface TREM2 recovery. 293F overexpression mouse TREM2 were harvested and labelled with NucBlue live cell stain ReadyProbes reagent for 10 minutes (2 drops of reagent added per mL of media). After labeling, cells were washed twice with 1×PBS. NucBlue labeled 293F cells were mixed with H6 and B5 in FACS buffer (PBS-+-0.5% BSA) with human Trustain FcX solution (Biolegend, cat #422302) at a density of 10^6/mL per cell line. Mixed cell lines were seeded at 300,000 cells per well in a 96-well round-bottom and incubated 20 minutes at room temperature. After incubation, cells were centrifuged and test anti-TREM2 antibodies were added, then incubated for 45 minutes on ice. After incubation, cells were centrifuged and washed with FACS buffer three times. Cells were then incubated with secondary antibody (Alexa Fluor 647 AffiniPure F(ab′)2 fragment goat anti-mouse IgG, Fcγ fragment specific (1:200, Jackson ImmunoResearch, cat #115-606-071) for 30 minutes on ice. After incubation, cells were washed with FACS buffer three times and resuspended in 90 μL of FACS buffer, then analyzed by flow cytometry (BD FACSCanto II, San Jose, Calif.). 20,000 events were obtained for each sample.

human macrophages = test: Cell survival assay, human monocyte-derived macrophages, restricted or no M-CSF, CellTiter Glo; assay type: cell-based; conditions: plate coated antibody, 5 ng/mL or no M-CSF, day 6
Protocol: TREM2 can support microglia energy homeostasis (Ulland et al., Cell, 2017, 170:649-663). […] To understand if enhancing TREM2 activity with TREM2 agonistic antibodies is sufficient for macrophage/microglia survival under limited M-CSF conditions, human macrophage differentiation and survival studies were performed using antibodies as described herein. Human monocytes isolated from peripheral blood were incubated with 5 ng/mL M-CSF in the presence of titrated concentrations of plate coated TREM2 antibodies or isotype controls. On day 6 cell viability was determined by CellTiter Glo viability assay.

TREM2 [2] = biological target: T3, TREM2 (Homo sapiens, UniProt Q9NZC2); test: pSyk antagonist assay on HEK293 TREM2/DAP12 cells; assay type: cell-based; conditions: FIGS. 9E-9G
T3 construct: expressed in transfected cells
Protocol: These experiments were performed as follows. Two days in advance of the experiment, HEK293 cells stably overexpressing TREM2 and DAP12 were plated at 40,000 cells/well on a 96 well poly-D-lysine-coated plate. Antibodies diluted in DMEM alone were immediately added to the cells, and allowed to incubate for 30 minutes at 37° C. The antibodies were then removed. […] The liposome/antibody solution was removed, and 35 μL lysis buffer (Cell Signaling Technologies, CST) was added using the liquid handler. The lysate was then incubated at 4° C. for 30 minutes, then either frozen at −80° C. or immediately carried forward to a pSyk AlphaLISA assay as described above. The percent inhibition was calculated as in FIG. 9C.
FIGS. 9F and 9G show inhibition by 21D4 and 21D11, respectively, at increasing antibody concentrations. These experiments were performed similarly to those described in FIG. 9E.
T3 sequence (O43914 22-113 partner, one chain of several): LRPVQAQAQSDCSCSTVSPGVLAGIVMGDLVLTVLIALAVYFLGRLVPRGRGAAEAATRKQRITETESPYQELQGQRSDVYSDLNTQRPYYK

TREM2 [3] = biological target: T1, TREM2; test: TREM2 pSyk antagonist assay on human macrophages (antibody pre-incubation, then liposomes); assay type: cell-based; conditions: FIGS. 9C-9D, 30 nM antibody
Protocol: Human macrophages were differentiated from donor blood using a human monocyte enrichment cocktail (Stem Cell Technologies) and culturing monocytes with human mCSF for five days in macrophage media (RPMI+10% Hyclone FBS+Glutamax+Pen/Strep+non-essential amino acids+sodium pyruvate). On the fifth day, the human macrophages were scraped from the flasks and were re-plated at 100,000 cells/well on a 96-well poly-D-lysine-coated plate in the macrophage media (without mCSF). The cells were incubated for 24 hours to adhere, then the media was removed.
Antibodies diluted in RPMI alone were immediately added to the cells, and allowed to incubate for 30 minutes at 37° C. The antibodies were then removed. Lipid vesicles comprised of 70% DOPC and 30% POPS (made according to the procedure for making vesicles described above) in HBSS were added to the cells and incubated […] at 37° C. The liposome/antibody solution was removed, and 35 μL lysis buffer (Cell Signaling Technologies, CST) was added using the liquid handler. The lysate was then incubated at 4° C. for 30 minutes, then either frozen at −80° C. or immediately carried forward to a pSyk AlphaLISA assay as described above.

T2 sequence (O43914 22-113 partner, one chain of several): as above

inhibition of liposome mediated pSyk (TREM2 [2]) | liposome mediated pSyk signaling after antibody pre-incubation (TREM2 [3]) | Molecule | binding to human and mouse TREM2 HEK cells (in words) [1] | survival of human macrophages (human macrophages)
– | – | RS9.F6: anti-TREM2 antibody clone; VH SEQ ID NO:24, VL SEQ ID NO:35 (antibody, V domains shown) VH: QVQLQQPGAELVKPGASVKLSCKASGYTFTSYWMHWVKQSPGRGLEWIGRSDPTTGGTNYNEKFKTKATLTVDKPSSTAYMQLSSLTSDDSAVYYCVRTSGTGDYWGQGTSLTVSS VL: DVVMTQTPLSLPVSLGDQASISCRSSQSLVHNNGNTFLHWYLQKPGQSPKLLIYKVSNRFSGVPDRFSGSGSGTDFTLKISRVEAEDLGVYFCSQTTHVPPTFGGGTKLEIK | binding to both mouse and human TREM2 cells | increased the survival
weaker antagonistic activity | blocked | 21D11: anti-TREM2 antibody clone; VH SEQ ID NO:14, VL SEQ ID NO:25 (antibody, V domains shown) VH: QVQLQQSGAELARPGASVKLSCKASGYTFTSYWIQWVKQRPGQGLEWIGTIYPGDGDARYTQKFKGKATLTADKSSSTTYMQLNSLASEDSAVYYCARNGITTAGYYAMDYWGQGTSVTVSS VL: DIQMTQSPASLSVSVGETVTITCRASENIYSNLAWYQQKQGRSPQLLVYAATNLADGVPSRFSGSGSGTQYSLKINSLQSEDFGYYYCQHFWGTPYTFGGGTKVEIK | – | –
